Experimental data from publication doi:10.1101/671156, “Oncoprotein CoAA repeats interact with RNA polymerase II CTD repeats” (bioRxiv, 2019).
Square brackets hold non-standard residues; d marks the D form. Ends that are not written are not given here. * marks the point of attachment. Biotin = O=C1N[C@H]2[C@H](CS[C@H]2CCCCC(=O)*)N1; Ahx = NCCCCCC(=O)O

Tests used:
[1] = molecular target: T1, GST-YxxQ (307-545), recombinant CoAA YxxQ repeats (human, UniProt Q96PK6 307-545); assay: ELISA; GST-YxxQ or GST-AxxQ (307-545) coated at 500 ng/well on 96-well plate with BSA; biotin-labeled diheptad peptides at 6.4-20000 ng/ml overnight; streptavidin-HRP, luminescence; EC50 by sigmoidal non-linear curve fit; conditions: both partners purified
T1 construct: CoAA (RBM14) YxxQ repeats, residues 307-545; also called YxxQ repeats (307-545); recombinant GST fusion CoAA YxxQ repeats; source: recombinant GST fusion protein
T1 sequence (looked up): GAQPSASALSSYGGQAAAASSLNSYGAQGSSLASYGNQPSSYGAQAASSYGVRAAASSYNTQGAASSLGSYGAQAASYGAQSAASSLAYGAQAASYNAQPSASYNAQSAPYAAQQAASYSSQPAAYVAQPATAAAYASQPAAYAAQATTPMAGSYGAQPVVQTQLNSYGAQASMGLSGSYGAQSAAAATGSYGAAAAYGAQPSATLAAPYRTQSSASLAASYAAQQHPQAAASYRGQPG

[2] = molecular target: T2, GST-YxxQ (307-545), recombinant CoAA YxxQ repeats (human, UniProt Q96PK6 307-545); assay: ELISA; competition with biotin-labeled pSer5 CTD peptide
T2 chain: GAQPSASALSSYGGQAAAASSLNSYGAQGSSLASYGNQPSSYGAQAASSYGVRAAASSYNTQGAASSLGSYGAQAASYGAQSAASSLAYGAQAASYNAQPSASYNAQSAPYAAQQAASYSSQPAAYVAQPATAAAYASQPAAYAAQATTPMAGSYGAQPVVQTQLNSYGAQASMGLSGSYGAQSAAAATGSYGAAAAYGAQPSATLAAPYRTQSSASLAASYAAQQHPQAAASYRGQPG

[3] = molecular target: T1, GST-YxxQ (307-545), recombinant CoAA …; assay: ELISA; competition: GST-YxxQ coated; non-labeled IERM peptide at 12.8-40000 ng/ml against a constant concentration of biotin-labeled CTD peptides; streptavidin-HRP; conditions: both partners purified

Binder | EC50 [1] [nM] | IC50 [2] [nM] | binding result [3]
KKSYSPTSPSYSPTSPS (phosphoserine at Ser5 of each heptad (SYSPTpSPSYSPTpSPS); biotin on the N-terminus; C6 spacer (aminocaproic acid) between KK and the peptide, two lysine residues inserted between biotin and the C6 spacer: [Biotin]-KK-C6-peptide; diheptad of the CTD heptad repeats of the RNAP II largest subunit, printed as SYSPTpSPSYSPTpSPS; also called pSer5 CTD; source: synthetic peptide) [biotin-labeled Ser5-phosphorylated CTD diheptad peptide] | 101 |  | 
KKSYSPTSPSYSPTSPS (biotin on the N-terminus; C6 spacer (aminocaproic acid) between KK and the peptide, two lysine residues inserted between biotin and the C6 spacer: [Biotin]-KK-C6-peptide; diheptad of the CTD heptad repeats (YSPTSPS) of the RNAP II largest subunit; also called CTD peptide; unphosphorylated CTD peptide; source: synthetic peptide) [biotin-labeled unphosphorylated CTD diheptad peptide] | 1070 |  | 
TIERMGSGVERMGPA (diheptad of the IERM repeats of hnRNP M, without biotin label; also called nonlabeled IERM peptide; IERM peptide; source: synthetic peptide) [non-labeled IERM diheptad peptide] |  | 106 | binds
Biotin-KK[Ahx]TIERMGSGVERMGPA (two lysine residues inserted between biotin and the C6 spacer: [Biotin]-KK-C6-peptide; diheptad of the IERM repeats of hnRNP M; also called IERM peptide; source: synthetic peptide) [biotin-labeled IERM diheptad peptide] | 83 |  | 
KKSYSPTSPSYSPTSPS (phosphoserine at Ser2 of each heptad (SYpSPTSPSYpSPTSPS); biotin on the N-terminus; C6 spacer (aminocaproic acid) between KK and the peptide, two lysine residues inserted between biotin and the C6 spacer: [Biotin]-KK-C6-peptide; diheptad of the CTD heptad repeats of the RNAP II largest subunit, printed as SYpSPTSPSYpSPTSPS; also called pSer2 CTD; source: synthetic peptide) [biotin-labeled Ser2-phosphorylated CTD diheptad peptide] | 135 |  | 
